Patent US20250206836A1

Molecular target: C1q human protein (human) (UniProt P02745)
Experiment: ELISA, plates coated with the antibody, C1q human protein titrated (the concentration axis is that of C1q), Mean Absorbance (OD Units)

Chain of C1q human protein (human) (P02745 23-245 limits assumed, chain 1 of 3): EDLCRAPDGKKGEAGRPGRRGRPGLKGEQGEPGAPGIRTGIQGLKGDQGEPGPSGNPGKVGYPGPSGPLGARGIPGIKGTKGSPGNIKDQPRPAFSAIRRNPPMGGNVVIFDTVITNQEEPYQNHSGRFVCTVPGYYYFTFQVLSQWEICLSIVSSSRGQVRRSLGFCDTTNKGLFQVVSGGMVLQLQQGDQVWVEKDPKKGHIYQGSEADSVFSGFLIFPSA
Chain of C1q human protein (human) (P02746 28-253 limits assumed, chain 2 of 3, further chain): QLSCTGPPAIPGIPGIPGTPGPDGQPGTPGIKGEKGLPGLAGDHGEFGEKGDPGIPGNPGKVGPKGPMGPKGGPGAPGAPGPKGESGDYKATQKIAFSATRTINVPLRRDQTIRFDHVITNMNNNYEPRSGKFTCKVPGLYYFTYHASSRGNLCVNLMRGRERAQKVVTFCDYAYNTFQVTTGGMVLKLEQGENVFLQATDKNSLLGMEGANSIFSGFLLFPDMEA
Chain of C1q human protein (human) (P02747 29-245 limits assumed, chain 3 of 3, further chain): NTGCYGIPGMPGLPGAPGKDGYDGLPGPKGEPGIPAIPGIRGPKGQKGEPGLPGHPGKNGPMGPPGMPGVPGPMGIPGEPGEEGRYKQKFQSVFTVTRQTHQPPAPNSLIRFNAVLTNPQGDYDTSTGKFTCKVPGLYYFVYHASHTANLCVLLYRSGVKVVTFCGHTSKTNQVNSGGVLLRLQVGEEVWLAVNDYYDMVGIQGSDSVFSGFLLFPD

EC50 (read off the curve): 20 µg/mL
Substance: Remicade (pos. control) (antibody)
